Data from article PMC10786891, “Massively parallel profiling of RNA-targeting CRISPR-Cas13d”.

Target: T1, EsCas13d, nuclease-dead (Eubacterium siraeum, UniProt B0MS50, R295A;H300A;R849A;H854A)
T1 sequence: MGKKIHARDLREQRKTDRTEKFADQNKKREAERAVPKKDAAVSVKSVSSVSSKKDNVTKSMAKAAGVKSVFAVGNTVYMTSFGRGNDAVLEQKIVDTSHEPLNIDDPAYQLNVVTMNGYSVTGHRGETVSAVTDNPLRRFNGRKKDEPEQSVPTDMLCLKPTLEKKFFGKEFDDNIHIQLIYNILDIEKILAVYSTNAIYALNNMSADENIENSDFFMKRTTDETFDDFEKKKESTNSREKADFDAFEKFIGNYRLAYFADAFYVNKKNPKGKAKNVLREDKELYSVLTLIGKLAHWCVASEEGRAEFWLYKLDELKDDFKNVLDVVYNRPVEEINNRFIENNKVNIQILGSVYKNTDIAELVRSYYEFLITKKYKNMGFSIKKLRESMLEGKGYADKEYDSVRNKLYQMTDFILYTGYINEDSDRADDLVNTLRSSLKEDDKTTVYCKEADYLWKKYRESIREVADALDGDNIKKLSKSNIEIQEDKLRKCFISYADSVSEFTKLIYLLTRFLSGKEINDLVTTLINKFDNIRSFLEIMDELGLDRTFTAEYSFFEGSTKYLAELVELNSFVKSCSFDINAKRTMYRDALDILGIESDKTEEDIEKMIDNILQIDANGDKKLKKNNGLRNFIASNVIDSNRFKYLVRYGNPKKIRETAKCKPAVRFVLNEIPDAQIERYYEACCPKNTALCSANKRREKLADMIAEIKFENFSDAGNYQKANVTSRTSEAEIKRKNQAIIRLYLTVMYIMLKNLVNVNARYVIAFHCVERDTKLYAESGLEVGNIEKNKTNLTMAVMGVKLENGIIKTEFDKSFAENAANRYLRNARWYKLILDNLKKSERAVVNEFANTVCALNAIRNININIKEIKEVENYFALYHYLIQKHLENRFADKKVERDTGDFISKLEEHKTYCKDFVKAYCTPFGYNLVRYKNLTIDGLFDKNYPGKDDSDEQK
Assay: crRNA (strand 1, pre-loaded); Mg2+; 40 mM Tris-HCl pH 7.5, 150 mM NaCl, 6 mM MgCl2, 1 mM DTT, 0.1% Tween-20, 0.2 mg/ml BSA; 25 C; 10 min per concentration, then washed
Conditions: tags: His6-TwinStrep-SUMO cleaved; N-terminal SNAP kept (SNAP-Surface 488); label: 3' end held by stalled T7 RNA polymerase

B1: target 1 U10G,A20C (mixed)
RNA 1: CACCCGUGCAAAAAUGCAGGGGUCUAAAACUGAGCGGAUAACCUCUCUAUGG
RNA 2: GGGAAUGGAUCCACAUCUACGAAUUCGUACCCUAGAGAGGUGAUCCGCUCACCGAGAUCGGAAGAGCACACGU
Binder B1 has a Kd of 76 ± 29 nM.

B2: target 1 insC 3' of 10,insG 3' of 1 (mixed)
RNA 1: CACCCGUGCAAAAAUGCAGGGGUCUAAAACUGAGCGGAUAACCUCUCUAUGG
RNA 2: GGGAAUGGAUCCACAUCUACGAAUUCGUACCAUAGAGAGGUUCAUCCGCUCAGCCGAGAUCGGAAGAGCACACGU
B2 gave a Kd of 15.5 ± 1.4 nM.

B3: target 1 insA 3' of 5,insA 3' of 3 (mixed)
RNA 1: CACCCGUGCAAAAAUGCAGGGGUCUAAAACUGAGCGGAUAACCUCUCUAUGG
RNA 2: GGGAAUGGAUCCACAUCUACGAAUUCGUACCAUAGAGAGGUUAUCCGACUACACCGAGAUCGGAAGAGCACACGU
B3 gave a Kd of 6.8 ± 0.6 nM.

B4: target 1 A1C,C21U (mixed)
RNA 1: CACCCGUGCAAAAAUGCAGGGGUCUAAAACUGAGCGGAUAACCUCUCUAUGG
RNA 2: GGGAAUGGAUCCACAUCUACGAAUUCGUACUAUAGAGAGGUUAUCCGCUCCCCGAGAUCGGAAGAGCACACGU
Work on B4 yielded a Kd of 13 ± 4 nM.

B5: target 1 insC 3' of 10,insU 3' of 9 (mixed)
RNA 1: CACCCGUGCAAAAAUGCAGGGGUCUAAAACUGAGCGGAUAACCUCUCUAUGG
RNA 2: GGGAAUGGAUCCACAUCUACGAAUUCGUACCAUAGAGAGGUUCAUUCCGCUCACCGAGAUCGGAAGAGCACACGU
Binder B5 has a Kd of 66 ± 27 nM.

B6: target 1 A1U,C21U (mixed)
RNA 1: CACCCGUGCAAAAAUGCAGGGGUCUAAAACUGAGCGGAUAACCUCUCUAUGG
RNA 2: GGGAAUGGAUCCACAUCUACGAAUUCGUACUAUAGAGAGGUUAUCCGCUCUCCGAGAUCGGAAGAGCACACGU
B6 gave a Kd of 7.6 ± 0.4 nM.

B7: target 1 A1G,C21U (mixed)
RNA 1: CACCCGUGCAAAAAUGCAGGGGUCUAAAACUGAGCGGAUAACCUCUCUAUGG
RNA 2: GGGAAUGGAUCCACAUCUACGAAUUCGUACUAUAGAGAGGUUAUCCGCUCGCCGAGAUCGGAAGAGCACACGU
Binder B7 has a Kd of 6.38 ± 0.24 nM.

B8: target 1 C6G (mixed)
RNA 1: CACCCGUGCAAAAAUGCAGGGGUCUAAAACUGAGCGGAUAACCUCUCUAUGG
RNA 2: GGGAAUGGAUCCACAUCUACGAAUUCGUACCAUAGAGAGGUUAUCGGCUCACCGAGAUCGGAAGAGCACACGU
With B8 the Kd was 8.37 ± 0.31 nM.

B9: target 1 C4U,U10A (mixed)
RNA 1: CACCCGUGCAAAAAUGCAGGGGUCUAAAACUGAGCGGAUAACCUCUCUAUGG
RNA 2: GGGAAUGGAUCCACAUCUACGAAUUCGUACCAUAGAGAGGUAAUCCGUUCACCGAGAUCGGAAGAGCACACGU
B9 gave a Kd of 47 ± 15 nM.

B10: target 1 del8 (mixed)
RNA 1: CACCCGUGCAAAAAUGCAGGGGUCUAAAACUGAGCGGAUAACCUCUCUAUGG
RNA 2: GGGAAUGGAUCCACAUCUACGAAUUCGUACCAUAGAGAGGUUACCGCUCACCGAGAUCGGAAGAGCACACGU
In the case of B10, the Kd is reported as 10.5 ± 0.6 nM.

B11: target 1 insC 3' of 10,insU 3' of 1 (mixed)
RNA 1: CACCCGUGCAAAAAUGCAGGGGUCUAAAACUGAGCGGAUAACCUCUCUAUGG
RNA 2: GGGAAUGGAUCCACAUCUACGAAUUCGUACCAUAGAGAGGUUCAUCCGCUCAUCCGAGAUCGGAAGAGCACACGU
Work on B11 yielded a Kd of 26 ± 4 nM.

B12: target 1 insU 3' of 9,insG 3' of 4 (mixed)
RNA 1: CACCCGUGCAAAAAUGCAGGGGUCUAAAACUGAGCGGAUAACCUCUCUAUGG
RNA 2: GGGAAUGGAUCCACAUCUACGAAUUCGUACCAUAGAGAGGUUAUUCCGCGUCACCGAGAUCGGAAGAGCACACGU
With B12 the Kd was 13.6 ± 2.1 nM.

B13: target 1 C6U,U11A (mixed)
RNA 1: CACCCGUGCAAAAAUGCAGGGGUCUAAAACUGAGCGGAUAACCUCUCUAUGG
RNA 2: GGGAAUGGAUCCACAUCUACGAAUUCGUACCAUAGAGAGGAUAUCUGCUCACCGAGAUCGGAAGAGCACACGU
Work on B13 yielded a Kd of 38.2 ± 2.4 nM.

B14: target 1 C7U,C22A (mixed)
RNA 1: CACCCGUGCAAAAAUGCAGGGGUCUAAAACUGAGCGGAUAACCUCUCUAUGG
RNA 2: GGGAAUGGAUCCACAUCUACGAAUUCGUAACAUAGAGAGGUUAUUCGCUCACCGAGAUCGGAAGAGCACACGU
Binder B14 has a Kd of 11 ± 0.5 nM.

B15: target 1 insG 3' of 18,insG 3' of 7 (mixed)
RNA 1: CACCCGUGCAAAAAUGCAGGGGUCUAAAACUGAGCGGAUAACCUCUCUAUGG
RNA 2: GGGAAUGGAUCCACAUCUACGAAUUCGUACCAUAGGAGAGGUUAUCGCGCUCACCGAGAUCGGAAGAGCACACGU
Binder B15 has a Kd of 34.9 ± 3 nM.

B16: target 1 insC 3' of 10,insC 3' of 1 (mixed)
RNA 1: CACCCGUGCAAAAAUGCAGGGGUCUAAAACUGAGCGGAUAACCUCUCUAUGG
RNA 2: GGGAAUGGAUCCACAUCUACGAAUUCGUACCAUAGAGAGGUUCAUCCGCUCACCCGAGAUCGGAAGAGCACACGU
With B16 the Kd was 13.5 ± 1 nM.

B17: target 1 complement block 6-14 (mixed)
RNA 1: CACCCGUGCAAAAAUGCAGGGGUCUAAAACUGAGCGGAUAACCUCUCUAUGG
RNA 2: GGGAAUGGAUCCACAUCUACGAAUUCGUACCAUAGAGUCCAAUAGGGCUCACCGAGAUCGGAAGAGCACACGU
Work on B17 yielded a Kd of 69 ± 27 nM.

B18: target 1 G17U (mixed)
RNA 1: CACCCGUGCAAAAAUGCAGGGGUCUAAAACUGAGCGGAUAACCUCUCUAUGG
RNA 2: GGGAAUGGAUCCACAUCUACGAAUUCGUACCAUAUAGAGGUUAUCCGCUCACCGAGAUCGGAAGAGCACACGU
Work on B18 yielded a Kd of 17 ± 1.3 nM.

B19: target 1 C21U (mixed)
RNA 1: CACCCGUGCAAAAAUGCAGGGGUCUAAAACUGAGCGGAUAACCUCUCUAUGG
RNA 2: GGGAAUGGAUCCACAUCUACGAAUUCGUACUAUAGAGAGGUUAUCCGCUCACCGAGAUCGGAAGAGCACACGU
Binder B19 has a Kd of 6.47 ± 0.24 nM.

B20: target 1 insC 3' of 8,insA 3' of 3 (mixed)
RNA 1: CACCCGUGCAAAAAUGCAGGGGUCUAAAACUGAGCGGAUAACCUCUCUAUGG
RNA 2: GGGAAUGGAUCCACAUCUACGAAUUCGUACCAUAGAGAGGUUAUCCCGCUACACCGAGAUCGGAAGAGCACACGU
For B20, the Kd was 11.8 ± 0.7 nM.

B21: target 1 C2G,G12C (mixed)
RNA 1: CACCCGUGCAAAAAUGCAGGGGUCUAAAACUGAGCGGAUAACCUCUCUAUGG
RNA 2: GGGAAUGGAUCCACAUCUACGAAUUCGUACCAUAGAGAGCUUAUCCGCUGACCGAGAUCGGAAGAGCACACGU
B21 was tested, and the Kd was 8.4 ± 0.8 nM.

B22: target 1 U8C,C22U (mixed)
RNA 1: CACCCGUGCAAAAAUGCAGGGGUCUAAAACUGAGCGGAUAACCUCUCUAUGG
RNA 2: GGGAAUGGAUCCACAUCUACGAAUUCGUAUCAUAGAGAGGUUACCCGCUCACCGAGAUCGGAAGAGCACACGU
B22 was tested, and the Kd was 28 ± 4 nM.

B23: target 1 insU 3' of 6,insC 3' of 5 (mixed)
RNA 1: CACCCGUGCAAAAAUGCAGGGGUCUAAAACUGAGCGGAUAACCUCUCUAUGG
RNA 2: GGGAAUGGAUCCACAUCUACGAAUUCGUACCAUAGAGAGGUUAUCCUGCCUCACCGAGAUCGGAAGAGCACACGU
For B23, the Kd was 13.9 ± 0.8 nM.

B24: target 1 insC 3' of 10,insA 3' of 2 (mixed)
RNA 1: CACCCGUGCAAAAAUGCAGGGGUCUAAAACUGAGCGGAUAACCUCUCUAUGG
RNA 2: GGGAAUGGAUCCACAUCUACGAAUUCGUACCAUAGAGAGGUUCAUCCGCUCAACCGAGAUCGGAAGAGCACACGU
B24 was tested, and the Kd was 19.4 ± 2.4 nM.

B25: target 1 insC 3' of 14,insA 3' of 3 (mixed)
RNA 1: CACCCGUGCAAAAAUGCAGGGGUCUAAAACUGAGCGGAUAACCUCUCUAUGG
RNA 2: GGGAAUGGAUCCACAUCUACGAAUUCGUACCAUAGAGACGGUUAUCCGCUACACCGAGAUCGGAAGAGCACACGU
Work on B25 yielded a Kd of 24.8 ± 1.9 nM.

B26: target 1 A1C,G17U (mixed)
RNA 1: CACCCGUGCAAAAAUGCAGGGGUCUAAAACUGAGCGGAUAACCUCUCUAUGG
RNA 2: GGGAAUGGAUCCACAUCUACGAAUUCGUACCAUAUAGAGGUUAUCCGCUCCCCGAGAUCGGAAGAGCACACGU
Binder B26 has a Kd of 34 ± 9 nM.

B27: target 1 insG 3' of 6,insG 3' of 6 (mixed)
RNA 1: CACCCGUGCAAAAAUGCAGGGGUCUAAAACUGAGCGGAUAACCUCUCUAUGG
RNA 2: GGGAAUGGAUCCACAUCUACGAAUUCGUACCAUAGAGAGGUUAUCCGGGCUCACCGAGAUCGGAAGAGCACACGU
B27 was tested, and the Kd was 11.4 ± 0.5 nM.

B28: target 1 insU 3' of 15,insU 3' of 14 (mixed)
RNA 1: CACCCGUGCAAAAAUGCAGGGGUCUAAAACUGAGCGGAUAACCUCUCUAUGG
RNA 2: GGGAAUGGAUCCACAUCUACGAAUUCGUACCAUAGAGUAUGGUUAUCCGCUCACCGAGAUCGGAAGAGCACACGU
For B28, the Kd was 53 ± 4 nM.
